# Reference: publication PMC7840129, “Structural basis for heme-dependent NCoR binding to the transcriptional repressor REV-ERBβ” (Science Advances, 2021)
# T1: heme-bound REV-ERBβ LBD (Homo sapiens, UniProt Q14995)
# T1 construct: The human REV-ERBβ LBD (residues 381 to 579) was previously cloned; 6xHis with 3C protease cleavage site (N, cleaved yes); made in house; host or cells: E. coli BL21(DE3)
# T1 sequence (Q14995 381-579): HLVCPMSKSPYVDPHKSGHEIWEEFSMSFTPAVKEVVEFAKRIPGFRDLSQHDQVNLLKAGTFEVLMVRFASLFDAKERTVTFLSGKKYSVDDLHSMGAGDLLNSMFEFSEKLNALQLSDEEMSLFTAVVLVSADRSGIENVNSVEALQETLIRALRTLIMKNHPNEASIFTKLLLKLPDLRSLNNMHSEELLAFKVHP
# B1: WT RID: mouse NCoR RID (residues 1942 to 2208 in the X50 splice variant) (protein, UniProt Q60974 1942-2208, looked up, fragment)
# chain: TITAANFIDVIITRQIASDKDARERGSQSSDSSSSLSSHRYETASDAIEVISPASSPAPPQEKPQAYQPDMVKANQAENESTRQYEGPLHHYRSQQESPSPQQQPPLPPSSQSEGMGQVPRTHRLITLADHICQIITQDFARNQVPSQASTSTFQTSPSALSSTPVRTKTSSRYSPESQSQTVLHPRPGPRVSPENLVDKSRGSRPGKSPERSHIPSEPYEPISPPQGPAVHEKQDSMLLLSQRGVDPAEQRSDSRSPGSISYLPSF
# modifications: X50 splice variant
# Biological target: T1, heme-bound REV-ERBβ LBD
# Test: ITC, NCoR RID constructs with heme-bound REV-ERBβ LBD
# Type: binding
# Description: Human REV-ERBβ LBD was expressed in BL21(DE3) Escherichia coli cells with an N-terminal hexahistidine (6xHis) tag separated by a 3C protease cleavage site. Expression was performed using auto-induction media: Cells were grown at 37°C for 5 hours, 30°C for 1 hour, and 18°C for 16 hours before harvesting by centrifugation. Pellets were resuspended in potassium phosphate lysis buffer [40 mM potassium phosphate (pH 7.4), 500 mM KCl, 15 mM imidazole, and 1 mM dithiothreitol (DTT)] supplemented with leupeptin, pepstatin A, lysozyme, and deoxyribonuclease (DNase) I and sonicated on ice. […] A 5-ml aliquot of 6xHis-tagged protein was purified by size exclusion chromatography using a Superdex 75 column equilibrated in time-resolved fluorescence energy transfer (TR-FRET) assay buffer [20 mM potassium phosphate (pH 7.4), 50 mM KCl, and 0.5 mM EDTA]; purified aliquots were stored at −80°C for TR-FRET assays. To cleave the 6xHis tag from the remaining protein, it was incubated overnight with 3C protease (generated in-house) via dialysis; then, protein was reloaded onto the HisTrap columns, and the flow-through was collected. Last, aggregates were removed by size exclusion chromatography using a Superdex 75 column and Hepes gel filtration buffer [20 mM Hepes (pH 7.4), 50 mM KCl, and 0.5 mM EDTA]. Greater than 95% purity was confirmed by SDS-PAGE. Protein was aliquoted and stored at −80°C.
# ITC experiments were performed using a MicroCal iTC200. All experiments were solvent-matched and contained 0.1% DMSO (peptide vehicle) and 0.2% 0.2 M solution of NaOH (heme vehicle) final concentrations. NITPIC software ([37]) was used to calculate baselines and integrate curves and prepare experimental data for fitting in SEDPHAT, which was used to generate final binding affinity and thermodynamic parameter measurements ([38]).Final figures were exported to GUSSI for publication-quality figure preparation ([39]).
# NCoR RID constructs (WT, ΔID1, ΔID2, or ΔID1ΔID2) were prepared in assay buffer at 15 μM, and REV-ERBβ LBD was prepared at 300 μM. REV-ERBβ LBD in the syringe was titrated into the RID in the sample cell as described above, with the exception that a total of 4 molar equivalents were titrated over 20 injections. […] For apo LBD into WT RID, data were fit to A + B ↔ AB + B ↔ BA + A ↔ BAB, with two nonsymmetric sites, microscopic K model in SEDPHAT. For apo LBD into ΔID2, data were fit to an A + B ↔ AB hetero-association model in SEDPHAT. For heme-bound LBD into WT RID, data were fit to an A + B ↔ AB hetero-association model in SEDPHAT.
# NCoR RID constructs (including WT, ΔID1, ΔID2, and ΔID1ΔID2) were transformed into BL21(DE3) E. coli cells, which were grown in 2 liters of Terrific Broth media [yeast extract (24 g/liter), tryptone (12 g/liter), KH2PO4 ([…]), K2HPO4 ([…]), and glycerol (4 ml/liter)] at 37°C until OD600 reached 0.7 to 0.8. Expression was induced with 0.75 mM IPTG for 2 hours at 37°C before cells were harvested by centrifugation. Pellets were washed 1× with phosphate-buffered saline and stored at −80°C until purification. Pellets were resuspended on ice in Hepes lysis buffer [25 mM Hepes (pH 7.4), 150 mM NaCl, 2 M urea, and 15 mM imidazole] supplemented with 1 mM DTT, pepstatin A, leupeptin, lysozyme, DNase I, phenylmethylsulfonyl fluoride, and 0.1% Tween 20, and cell slurry was sonicated on ice. […]
# [1] = +Heme LBD, WT RID, 25°C, A + B ↔ AB model, 95% CI
molecule,measurement,setting,value
B1,TΔS,[1],11.2 kcal/mol
same,ΔG,[1],-9.6 kcal/mol
same,ΔH,[1],1.7 kcal/mol
same,Kd,"+Heme LBD, WT RID, LBD 300 μM into 15 μM RID, pH 7.4, 25°C, A + B ↔ AB hetero-association model, 95% CI",99 nM
same,RID binding to heme-bound LBD (in words),"heme-bound LBD, RID mutants and WT",must involve positive cooperativity
